The target of assay [1] is T1, human calcitonin receptor (human, UniProt P30988 25-474).
T1 construct: whole, on cells; Assayed as cell membranes of BHK tk'ts 13 cells stably transfected with the human calcitonin receptor (Assay VII); also called hCTR; hCT
T1 sequence (looked up): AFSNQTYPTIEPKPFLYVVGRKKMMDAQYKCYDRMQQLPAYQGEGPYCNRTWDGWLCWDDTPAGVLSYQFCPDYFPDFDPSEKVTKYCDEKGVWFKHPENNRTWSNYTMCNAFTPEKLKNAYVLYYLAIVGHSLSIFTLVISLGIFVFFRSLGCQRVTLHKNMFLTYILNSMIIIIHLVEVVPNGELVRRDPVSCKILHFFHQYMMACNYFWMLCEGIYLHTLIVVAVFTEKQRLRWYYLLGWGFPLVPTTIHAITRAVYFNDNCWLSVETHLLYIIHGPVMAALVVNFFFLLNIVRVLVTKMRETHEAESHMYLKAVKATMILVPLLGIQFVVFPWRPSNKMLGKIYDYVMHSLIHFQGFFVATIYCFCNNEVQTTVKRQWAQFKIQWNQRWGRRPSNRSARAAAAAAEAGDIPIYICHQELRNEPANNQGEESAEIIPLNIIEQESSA
In words: SPA competition vs 125I-calcitonin, membranes of BHK cells with human calcitonin receptor (Assay VII). The gist of the method: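 BHK hCTR membranes 35 ng/μL + SPA beads 0.05 mg/well; buffer 50 mM Hepes pH 7.4, 1 mM CaCl2, 5 mM MgCl₂, 0.1% OA, 0.02% Tween20. 120 min, 25° C., shaking. Scintillation count; IC50 by one-site binding competition.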

Assay [2] concerns the target T1, human calcitonin receptor. In words: IC50 at hCTR divided by IC50 at hAmylin-R (SPA competition assays V and VII). Put shortly:
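Competition binding by SPA uses membrane preparations (35 ng/μL final) in pH 7.4 Hepes buffer with 1 mM CaCl2 and 5 mM MgCl₂. Incubation lasts 120 min at 25° C, and IC₅₀ comes from one-site fitting.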

Numbered stars: 1 amine (or outer) side, 2 acyl side, 3 side chain; on linkers, the order of the positions; unused ones are H or OH. Bridge positions count the residues as written; N and C are the ends. Side chains are listed from the residue outwards. Ends that are not written are not given here. * marks the point of attachment. C20 diacid = O=C(O)CCCCCCCCCCCCCCCCCCC(=O)*; γGlu = O=C(O)[C@H](CCC(=O)[*:2])N[*:1]; AEEA = NCCOCCOCC(=O)O

One may read the IC50 as the concentration at which inhibition is half-maximal.

B1: N^ε1-[2-[2-[2-[[(4S)-4-carboxy-4-(19-carboxynonadecanoylamino)butanoyl]amino]ethoxy]ethoxy]acetyl]-[His14,Arg17,Pro21,Pro27,Pro31]-h-amylin (peptide)
peptide: K([AEEA-γGlu-C20 diacid])CNTATCATQRLAHFLRHSSPNFGAIPSSTPVGSNTY-NH2
modifications: disulfide 2-7; N-terminus assumed
SMILES: CC[C@H](C)[C@H](NC(=O)[C@H](C)NC(=O)CNC(=O)[C@H](Cc1ccccc1)NC(=O)[C@H](CC(N)=O)NC(=O)[C@@H]1CCCN1C(=O)[C@H](CO)NC(=O)[C@H](CO)NC(=O)[C@H](Cc1c[nH]cn1)NC(=O)[C@H](CCCNC(=N)N)NC(=O)[C@H](CC(C)C)NC(=O)[C@H](Cc1ccccc1)NC(=O)[C@H](Cc1c[nH]cn1)NC(=O)[C@H](C)NC(=O)[C@H](CC(C)C)NC(=O)[C@H](CCCNC(=N)N)NC(=O)[C@H](CCC(N)=O)NC(=O)[C@@H](NC(=O)[C@H](C)NC(=O)[C@@H]1CSSC[C@H](NC(=O)[C@@H](N)CCCCNC(=O)COCCOCCNC(=O)CC[C@H](NC(=O)CCCCCCCCCCCCCCCCCCC(=O)O)C(=O)O)C(=O)N[C@@H](CC(N)=O)C(=O)N[C@@H]([C@@H](C)O)C(=O)N[C@@H](C)C(=O)N[C@@H]([C@@H](C)O)C(=O)N1)[C@@H](C)O)C(=O)N1CCC[C@H]1C(=O)N[C@@H](CO)C(=O)N[C@@H](CO)C(=O)N[C@H](C(=O)N1CCC[C@H]1C(=O)N[C@H](C(=O)NCC(=O)N[C@@H](CO)C(=O)N[C@@H](CC(N)=O)C(=O)N[C@H](C(=O)N[C@@H](Cc1ccc(O)cc1)C(N)=O)[C@@H](C)O)C(C)C)[C@@H](C)O
notes: also called compound 61
As to B1, the IC50 in assay [1] came out at 8.11 nM. In addition, in assay [2], the “Ratio hCT/hAmylin binding” value is 66.7.

B2: N^ε1-[(4S)-4-carboxy-4-(19-carboxynonadecanoylamino)butanoyl]-[Ala14,Arg17,Pro21,Pro27,His34]-h-amylin (peptide)
peptide: K([γGlu-C20 diacid])CNTATCATQRLAAFLRHSSPNFGAIPSSTNVGHNTY-NH2
modifications: disulfide 2-7; N-terminus assumed
SMILES: CC[C@H](C)[C@H](NC(=O)[C@H](C)NC(=O)CNC(=O)[C@H](Cc1ccccc1)NC(=O)[C@H](CC(N)=O)NC(=O)[C@@H]1CCCN1C(=O)[C@H](CO)NC(=O)[C@H](CO)NC(=O)[C@H](Cc1c[nH]cn1)NC(=O)[C@H](CCCNC(=N)N)NC(=O)[C@H](CC(C)C)NC(=O)[C@H](Cc1ccccc1)NC(=O)[C@H](C)NC(=O)[C@H](C)NC(=O)[C@H](CC(C)C)NC(=O)[C@H](CCCNC(=N)N)NC(=O)[C@H](CCC(N)=O)NC(=O)[C@@H](NC(=O)[C@H](C)NC(=O)[C@@H]1CSSC[C@H](NC(=O)[C@@H](N)CCCCNC(=O)CC[C@H](NC(=O)CCCCCCCCCCCCCCCCCCC(=O)O)C(=O)O)C(=O)N[C@@H](CC(N)=O)C(=O)N[C@@H]([C@@H](C)O)C(=O)N[C@@H](C)C(=O)N[C@@H]([C@@H](C)O)C(=O)N1)[C@@H](C)O)C(=O)N1CCC[C@H]1C(=O)N[C@@H](CO)C(=O)N[C@@H](CO)C(=O)N[C@H](C(=O)N[C@@H](CC(N)=O)C(=O)N[C@H](C(=O)NCC(=O)N[C@@H](Cc1c[nH]cn1)C(=O)N[C@@H](CC(N)=O)C(=O)N[C@H](C(=O)N[C@@H](Cc1ccc(O)cc1)C(N)=O)[C@@H](C)O)C(C)C)[C@@H](C)O
notes: also called compound 93
As to B2, the IC50 in assay [1] is 17.8 nM. Further, the “Ratio hCT/hAmylin binding” value in assay [2] came out at 101.

B3: N^ε1-[2-[2-[2-[[(4S)-4-carboxy-4-(19-carboxynonadecanoylamino)butanoyl]amino]ethoxy]ethoxy]acetyl]-[Thr14,Arg17,Pro21,Pro27,Pro31]-h-amylin (peptide)
peptide: K([AEEA-γGlu-C20 diacid])CNTATCATQRLATFLRHSSPNFGAIPSSTPVGSNTY-NH2
modifications: disulfide 2-7; N-terminus assumed
SMILES: CC[C@H](C)[C@H](NC(=O)[C@H](C)NC(=O)CNC(=O)[C@H](Cc1ccccc1)NC(=O)[C@H](CC(N)=O)NC(=O)[C@@H]1CCCN1C(=O)[C@H](CO)NC(=O)[C@H](CO)NC(=O)[C@H](Cc1c[nH]cn1)NC(=O)[C@H](CCCNC(=N)N)NC(=O)[C@H](CC(C)C)NC(=O)[C@H](Cc1ccccc1)NC(=O)[C@@H](NC(=O)[C@H](C)NC(=O)[C@H](CC(C)C)NC(=O)[C@H](CCCNC(=N)N)NC(=O)[C@H](CCC(N)=O)NC(=O)[C@@H](NC(=O)[C@H](C)NC(=O)[C@@H]1CSSC[C@H](NC(=O)[C@@H](N)CCCCNC(=O)COCCOCCNC(=O)CC[C@H](NC(=O)CCCCCCCCCCCCCCCCCCC(=O)O)C(=O)O)C(=O)N[C@@H](CC(N)=O)C(=O)N[C@@H]([C@@H](C)O)C(=O)N[C@@H](C)C(=O)N[C@@H]([C@@H](C)O)C(=O)N1)[C@@H](C)O)[C@@H](C)O)C(=O)N1CCC[C@H]1C(=O)N[C@@H](CO)C(=O)N[C@@H](CO)C(=O)N[C@H](C(=O)N1CCC[C@H]1C(=O)N[C@H](C(=O)NCC(=O)N[C@@H](CO)C(=O)N[C@@H](CC(N)=O)C(=O)N[C@H](C(=O)N[C@@H](Cc1ccc(O)cc1)C(N)=O)[C@@H](C)O)C(C)C)[C@@H](C)O
notes: also called compound 75
For B3, in assay [1], the IC50 stood at 60.9 nM. Besides, in assay [2], the “Ratio hCT/hAmylin binding” value amounted to 91.4.

B4: N^ε1-[2-[2-[2-[[(4S)-4-carboxy-4-(19-carboxynonadecanoylamino)butanoyl]amino]ethoxy]ethoxy]acetyl]-[Ser14,Arg17,Pro21,Pro27,Pro31]-h-amylin (peptide)
peptide: K([AEEA-γGlu-C20 diacid])CNTATCATQRLASFLRHSSPNFGAIPSSTPVGSNTY-NH2
modifications: disulfide 2-7; N-terminus assumed
SMILES: CC[C@H](C)[C@H](NC(=O)[C@H](C)NC(=O)CNC(=O)[C@H](Cc1ccccc1)NC(=O)[C@H](CC(N)=O)NC(=O)[C@@H]1CCCN1C(=O)[C@H](CO)NC(=O)[C@H](CO)NC(=O)[C@H](Cc1c[nH]cn1)NC(=O)[C@H](CCCNC(=N)N)NC(=O)[C@H](CC(C)C)NC(=O)[C@H](Cc1ccccc1)NC(=O)[C@H](CO)NC(=O)[C@H](C)NC(=O)[C@H](CC(C)C)NC(=O)[C@H](CCCNC(=N)N)NC(=O)[C@H](CCC(N)=O)NC(=O)[C@@H](NC(=O)[C@H](C)NC(=O)[C@@H]1CSSC[C@H](NC(=O)[C@@H](N)CCCCNC(=O)COCCOCCNC(=O)CC[C@H](NC(=O)CCCCCCCCCCCCCCCCCCC(=O)O)C(=O)O)C(=O)N[C@@H](CC(N)=O)C(=O)N[C@@H]([C@@H](C)O)C(=O)N[C@@H](C)C(=O)N[C@@H]([C@@H](C)O)C(=O)N1)[C@@H](C)O)C(=O)N1CCC[C@H]1C(=O)N[C@@H](CO)C(=O)N[C@@H](CO)C(=O)N[C@H](C(=O)N1CCC[C@H]1C(=O)N[C@H](C(=O)NCC(=O)N[C@@H](CO)C(=O)N[C@@H](CC(N)=O)C(=O)N[C@H](C(=O)N[C@@H](Cc1ccc(O)cc1)C(N)=O)[C@@H](C)O)C(C)C)[C@@H](C)O
notes: also called compound 73
With B4, in assay [1], the IC50 was found to be 5.38 nM. In assay [2], the “Ratio hCT/hAmylin binding” value stood at 51.7.

B5: N^ε1-[2-[2-[2-[[(4S)-4-carboxy-4-(19-carboxynonadecanoylamino)butanoyl]amino]ethoxy]ethoxy]acetyl]-[His14,Arg17,Pro21,Pro27,Pro34]-h-amylin (peptide)
peptide: K([AEEA-γGlu-C20 diacid])CNTATCATQRLAHFLRHSSPNFGAIPSSTNVGPNTY-NH2
modifications: disulfide 2-7; N-terminus assumed
SMILES: CC[C@H](C)[C@H](NC(=O)[C@H](C)NC(=O)CNC(=O)[C@H](Cc1ccccc1)NC(=O)[C@H](CC(N)=O)NC(=O)[C@@H]1CCCN1C(=O)[C@H](CO)NC(=O)[C@H](CO)NC(=O)[C@H](Cc1c[nH]cn1)NC(=O)[C@H](CCCNC(=N)N)NC(=O)[C@H](CC(C)C)NC(=O)[C@H](Cc1ccccc1)NC(=O)[C@H](Cc1c[nH]cn1)NC(=O)[C@H](C)NC(=O)[C@H](CC(C)C)NC(=O)[C@H](CCCNC(=N)N)NC(=O)[C@H](CCC(N)=O)NC(=O)[C@@H](NC(=O)[C@H](C)NC(=O)[C@@H]1CSSC[C@H](NC(=O)[C@@H](N)CCCCNC(=O)COCCOCCNC(=O)CC[C@H](NC(=O)CCCCCCCCCCCCCCCCCCC(=O)O)C(=O)O)C(=O)N[C@@H](CC(N)=O)C(=O)N[C@@H]([C@@H](C)O)C(=O)N[C@@H](C)C(=O)N[C@@H]([C@@H](C)O)C(=O)N1)[C@@H](C)O)C(=O)N1CCC[C@H]1C(=O)N[C@@H](CO)C(=O)N[C@@H](CO)C(=O)N[C@H](C(=O)N[C@@H](CC(N)=O)C(=O)N[C@H](C(=O)NCC(=O)N1CCC[C@H]1C(=O)N[C@@H](CC(N)=O)C(=O)N[C@H](C(=O)N[C@@H](Cc1ccc(O)cc1)C(N)=O)[C@@H](C)O)C(C)C)[C@@H](C)O
notes: also called compound 68
Consider B5, for which the IC50 in assay [1] was determined as 5.66 nM. For the same molecule, in assay [2], the “Ratio hCT/hAmylin binding” value was 64.4.

B6: N^ε1-[2-[2-[2-[[(4S)-4-carboxy-4-(19-carboxynonadecanoylamino)butanoyl]amino]ethoxy]ethoxy]acetyl]-[Lys14,Arg17,Pro21,Pro27,Pro31]-h-amylin (peptide)
peptide: K([AEEA-γGlu-C20 diacid])CNTATCATQRLAKFLRHSSPNFGAIPSSTPVGSNTY-NH2
modifications: disulfide 2-7; N-terminus assumed
SMILES: CC[C@H](C)[C@H](NC(=O)[C@H](C)NC(=O)CNC(=O)[C@H](Cc1ccccc1)NC(=O)[C@H](CC(N)=O)NC(=O)[C@@H]1CCCN1C(=O)[C@H](CO)NC(=O)[C@H](CO)NC(=O)[C@H](Cc1c[nH]cn1)NC(=O)[C@H](CCCNC(=N)N)NC(=O)[C@H](CC(C)C)NC(=O)[C@H](Cc1ccccc1)NC(=O)[C@H](CCCCN)NC(=O)[C@H](C)NC(=O)[C@H](CC(C)C)NC(=O)[C@H](CCCNC(=N)N)NC(=O)[C@H](CCC(N)=O)NC(=O)[C@@H](NC(=O)[C@H](C)NC(=O)[C@@H]1CSSC[C@H](NC(=O)[C@@H](N)CCCCNC(=O)COCCOCCNC(=O)CC[C@H](NC(=O)CCCCCCCCCCCCCCCCCCC(=O)O)C(=O)O)C(=O)N[C@@H](CC(N)=O)C(=O)N[C@@H]([C@@H](C)O)C(=O)N[C@@H](C)C(=O)N[C@@H]([C@@H](C)O)C(=O)N1)[C@@H](C)O)C(=O)N1CCC[C@H]1C(=O)N[C@@H](CO)C(=O)N[C@@H](CO)C(=O)N[C@H](C(=O)N1CCC[C@H]1C(=O)N[C@H](C(=O)NCC(=O)N[C@@H](CO)C(=O)N[C@@H](CC(N)=O)C(=O)N[C@H](C(=O)N[C@@H](Cc1ccc(O)cc1)C(N)=O)[C@@H](C)O)C(C)C)[C@@H](C)O
notes: also called compound 74
For B6, the IC50 in assay [1] stood at 79.9 nM. In addition, in assay [2], the “Ratio hCT/hAmylin binding” value was determined as 101.

Values taken from US20140087995A1 (published 2014).
